How the values were obtained:
[1] = test system: pluripotent cells C3H10T1/2, ST2 and C2C12; assay: Wnt-frizzled pathway and osteoblast differentiation, alkaline phosphatase measurement in pluripotent cells; format: cell-based, mouse; details: overexpression; C3H10T1/2, ST2 and C2C12
From the text: FIGS. 1 to 7 represents the relationship between members of the Wnt-frizzled family, with bone formation, by measurement of alkaline phosphatase (ALP).
The inventors have also tested the capacity of Fz1 to interact with Wnt proteins and thus affect osteoblast differentiation. Overexpression of Fz1 decreased the activity of Wnt1, Wnt2 and Wnt3a in pluripotent cells C3H10T1/2 as determined by the alkaline phosphatase measurement (FIG. 4). However the expression of Fz3 or Fz4 increased the activity of Wnt proteins in the differentiation process (FIG. 6). […] This indicate that Frizzled may negatively or positively cooperate with their ligand proteins, Wnt, in these bone-related cells.
(§1) Mouse cell lines representing different stages of osteoblastic differentiation, C2C12, C2H10T1/2, ST2 and MC3T3-E1, were grown in the presence of agents capable of the induction of osteoblastic differentiation in vitro such as BMP2 and Sonic Hedgehog or in the presence of TGF beta (negative control) or with serum alone. Primary cells derived from mouse calvaria were also cultured for 0, 2, 7 14 and 21 days and RNA prepared for each time point. For example, C3H10T ½ and C2C12 can be obtained from the ATCC (Manassas, Va., USA) under the collection numbers CCL-226 and CRL-1772, respectively.

[2] = test system: C3H10T1/2 cells; assay: Transient over-expression of candidate genes, cooperation with BMP2 by measurement of alkaline phosphatase; format: cell-based, mouse; parameters: key: +: positive or negative cooperation with BMP2; −: positive or negative cooperation with BMP2; details: for Validation in vitro (coop over BMP2) C3H10T1/2: alkaline phosphatase; for Validation in C2H10T1/2 (coop over BMP2): alkaline phosphatase at 48 hours
Protocol: as §1
The candidates genes are cloned in expression vectors and their ability to express a protein of the expected size verified by COS cells transient transfection. The genes are then transfected in C3H10T1/2 cells and/or C2C12 cells (transient over-expression) and positive or negative cooperation with BMP2 is evaluated by the measurement of alkaline phosphatase (enzymatic assay and TaqMan) at 48 hours. Controls of positive cooperation, recombinant Sonic Hedgehog, or negative cooperation, recombinant Noggin, are included in each test.

| Molecule | production of alkaline phosphatase (osteoblast differentiation) [1] | Validation in vitro (coop over BMP2) C3H10T1/2 [2] | Validation in C2H10T1/2 (coop over BMP2) [2] |
| --- | --- | --- | --- |
| Wnt3a | increases |  |  |
| 65 (nucleic acid, listed as Mus musculus) AATCTAGAATGGAGGCCAGAGCTCAGAGTGGCAACGGGTCGCAGCCTTTGCTGCAGACAGCCCATGACAGTGGCAGGCAGCGCGGGGAGCCGGATCCAAGAGATGCCCTTACCCAGCAGGTACACGTCTTGTCTCTGGATCAGATCAGAGCCATCCGAAACACCAATGAGTACACAGAGGGCCCTACTGTGGTCCCAAGACCTGGGCTCAAGCCTGCTCCTCGCCCCTCCACTCAGCACAAACATGAAAGACTCCACGGTCTGCCGGAGCACCGCCAGCCTCCCAGGCTCCAGCCCTCGCAGGTCCATTCTTCACGGGCCCCTCTGTCCAGGTCCATCAGCACTGTCAGCTCAGGGTCTCGGAGCAGTACAAGGACAAGTACCAGCAGCAGCTCCTCGGAACAGAGACTGTTAGGACCGTCCTTCTCCCACGGGCCTGCTGCTGCTGATGGAATAATCCGAGTGCAGCCTAAATCGGAGCTCAAGCCAGGTGACGTTAAGCCACTGAGCAAGGATGATTTGGGTCTGCATGCCTACAGGTGTGAGGACTGCGGCAAGTGCAAGTGTAAGGAGTGCACCTACCCGAGGCCCCTGCCGTCGGACTGGATCTGTGACAAGCAGTGCCTCTGCTCAGCCCAGAACGTCATTGACTATGGGACTTGTGTGTGCTGTGTGAAAGGTCTCTTCTATCACTGCTCCAATGACGATGAGGACAATTGTGCTGACAACCCGTGCTCTTGCAGCCAGTCCCATTGTTGTACGCGATGGTCAGCGATGGGAGTCATGTCTCTCTTTTTGCCTTGTTTATGGTGTTACCTTCCAGCCAAGGGTTGCCTTAAATTGTGCCAGGGGTGTTATGACCGAGTGAACAGGCCGGGTTGTCGTTGTAAAAACTCAAATACAGTTTGCTGCAAAGTTCCCACTGTCCCCCCTAGGAACTTTGAAAAACCAACAACTAGTAAAAGGGCGAATTCCAGCAC |  | + | + coop over BMP2 |
| 67 (nucleic acid, listed as Mus musculus) AATCTAGAATGGCGTTGACTGCGGATGTGGCAGGACCAGCACCTTGGGGCTTCCGAATTAGCGGGGGCAGAGATTTCCACACACCCATCATTGTGACCAAGGTCACAGAGCGGGGCAAGGCTGAAGCAGCTGATCTCCGGCCTGGCGACATCATTGTGGCCATCAATGGACAGAGTGCAGAGAACATGCTACACGCGGAGGCCCAAAGCAAGATCCGACAGAGCGCCTCACCCCTAAGACTGCAGCTGGACCGGTCCCAAACAGCCTCTCCTGGGCAGACCAATGGGGAGGGCTCCTTGGAAGTGCTGGCAACCAGATTCCAGGGCTCCCTGAGGACACACCGTGACAGCCAGTCTTCCCAGAGGTCTGCCTGCTTCAGCCCAGTCTCTCTCAGCCCCAGGCCTTGCAGCCCCTTCTCCACCCCACCCCCTACCAGCCCAGTTGCCCTTTCTAAAGAGGATATGATTGGCTGTAGTTTCCAGAGTCTGACACACTCTCCAGGCCTTGCTGCTGCTCACCACTTGACCTACCCTGGCCACCCCACCAGCCAACAGGCCGGCCACAGCAGCCCAAGCGACTCCGCAGTGAGGGTGCTGCTCCATTCCCCAGGACGGCCCTCCAGCCCTAGGTTCAGCAGTTTGGATCTGGAGGAAGACTCAGAGGTGTTCAAGATGCTGCAGGAGAACCGCCAGGGACGGGCCGCCCCAAGGCAGTCCAGCTCTTTTCGACTCTTACAGGAAGCCTTGGAGGCTGAGGAGAGAGGTGGCACACCTGCCTTTGTGCCCAGCTCGCTGAGCTCCCAGGCTTCCTTGCCCACCTCCAGGGCCTTGGCCACTCCACCCAAGCTCCACACCTGTGAGAAATGCAGCGTCAACATCTCGAACCAGGCGGTCCGCATCCAGGAGGGGAGGTACCGACACCCTGGCTGCTACACTTGCGCAGACTGTGGGCTGAACCTGAAGATGCGCGGCCACTTCTGGGTGGGCAATGAGTTGTACTGCGAGAAGCATGCCCGCCAGCGCTACTCTATGCCTGGAACTCTCAACTCTCGAGCCACTAGTAA |  | − |  |
| 48 (nucleic acid, listed as Mus musculus) AATCTAGAATGGCAGCTGCCTCTACTTCCAGCCCTGTAATTTCACAGCCCCAGTTCACAGCCATGAACGAACAACAGTGCTTCTACAATGAGTCTATCGCCTTCTTTTATAACCGGAGTGGGAAATATCTAGCCACAGAATGGAACACAGTGAGCAAGCTGGTGATGGGACTGGGCATCACTGTTTGCGTGTTCATCATGTTGGCCAATCTCCTGGTCATGGTGGCAATCTACGTCAACCGCCGCTTCCATTTCCCTATTTATTACTTGATGGCCAACCTGGCTGCTGCAGACTTCTTCGCTGGATTGGCCTACTTCTACCTGATGTTCAATACAGGACCTAATACCCGGAGACTGACTGTTAGCACGTGGCTCCTCCGGCAGGGCCTCATTGACACCAGCCTGACAGCTTCTGTGGCCAACCTGCTGGCTATTGCTATCGAGAGGCACATCACGGTTTTCCGCATGCAGCTCCATACACGAATGAGCAACCGGCGCGTGGTGGTGGTGATTGTAGTCATCTGGACTATGGCCATTGTGATGGGTGCTATACCCAGTGTGGGCTGGAACTGCATCTGTGATATCGATCACTGTTCCAACATGGCACCCCTCTACAGTGACTCCTACTTAGTCTTCTGGGCCATTTTCAACCTGGTGACCTTTGTGGTCATGGTGGTTCTCTACGCTCACATCTTTGGCTATGTTCGCCAGAGGACTATGAGGATGTCTCGGCATAGTTCTGGACCCAGGAGGAATCGGGACACCATGATGAGCCTTCTGAAGACTGTGGTCATTGTGCTTGGTGCCTTTATTGTCTGCTGGACTCCGGGATTGGTCTTGTTATTGCTGGATGTGTGCTGCCCGCAGTGCGATGTCCTGGCCTATGAGAAGTTCTTCCTCCTCCTGGCCGAGTTCAACTCTGCTATGAACCCCATCATCTACTCCTACCGCGACAAAGAGATGAGCGCCACCTTCAGGCAGATCCTGTGTTGCCAGCGCAACGAGAACCCTAATGGCCCCACGGAAGGCTCTGACCGCTCTGCCTCCTCCCTCAACCACACCATTCTGGCTGGAGTTCACAGCAACGACCACTCTGTGGTTACTAGTAA |  | + | + coop over BMP2 |
| 7 (nucleic acid, listed as Mus musculus) AATCTAGAATGAAGTCCTGCGGCCTTTTACCTTTCACGGTGCTCCTTGCTCTGGGGATCCTGGCACCCTGGACTGTGGAAGGAGGCAAAAATGATGCTATCAAAATCGGAGCCTGCCCTGCTAAAAAGCCTGCCCAGTGCCTTAAGCTTGAGAAGCCACAATGCCGTACTGACTGGGAGTGCCCGGGAAAGCAGAGGTGCTGCCAAGATGCTTGCGGTTCCAAGTGCGTGAATCCTGTTCCCATTCGCAAACCAGTGTGGAGGAAGCCTGGGAGGTGCGTCAAAACTCAGGCAAGATGTATGATGCTTAACCCTCCCAATGTCTGCCAGAGGGACGGGCAGTGTGACGGCAAATACAAGTGCTGTGAGGGTATATGTGGGAAAGTCTGCCTGCCCCCGATGACTAGTAA |  | + | + coop over BMP2 |
| 24 (nucleic acid, listed as Mus musculus) CGATCGATATGGCCAGCCCGCTGCGCTCCTTGCTGTTCCTGCTGGCCGTCCTGGCCGTGGCCTGGGCGGCGACCCCAAAACAAGGCCCGCGAATGTTGGGAGCCCCGGAGGAGGCAGATGCCAATGAGGAAGGCGTGCGGCGAGCGTTGGACTTCGCTGTGAGCGAGTACAACAAGGGCAGCAACGATGCGTACCACAGCCGCGCCATACAGGTGGTGAGAGCTCGTAAGCAGCTCGTGGCTGGAGTGAACTATTTTTTGGATGTGGAGATGGGCCGAACTACATGTACCAAGTCCCAGACAAATTTGACTGACTGTCCTTTCCATGACCAGCCCCATCTGATGAGGAAGGCACTCTGCTCCTTCCAGATCTACAGCGTGCCCTGGAAAGGCACACACTCCCTGACAAAATTCAGCTGCAAAAATGCCGCGGCCGCTT |  | − |  |
| 46 (nucleic acid, listed as Mus musculus) AATCTAGAATGGTGTCCACTAGCATCCCGGAGGTTAAAGCTCTCCGCAGCTCAGTCTCTGACTATGGGAACTATGATATCATAGTCCGGCATTACAACTACACAGGCAAGTTGAACATCGGGGCGGAGAAGGACCATGGCATTAAACTGACTTCAGTGGTGTTCATTCTCATCTGCTGCTTCATCATCCTAGAGAATATATTTGTCTTGCTAACTATTTGGAAAACCAAGAAGTTCCACCGGCCCATGTACTATTTCATAGGCAACCTAGCCCTCTCGGACCTATTAGCAGGCGTGGCTTACACAGCTAACCTGCTGTTGTCTGGGGCCACCACTTACAAGCTCACACCTGCCCAGTGGTTTCTGCGGGAAGGGAGTATGTTTGTGGCTCTCTCTGCATCAGTCTTCAGCCTCCTTGCCATCGCCATTGAGCGCTACATCACCATGCTGAAGATGAAACTACACAACGGGAGCAACAGCTCGCGCTCCTTTCTGCTGATCAGCGCCTGCTGGGTCATCTCCCTCATCCTGGGGGGCCTGCCCATCATGGGCTGGAACTGCATCAGCTCGCTGTCTAGCTGCTCCACCGTGCTCCCGCTCTACCACAAGCACTATATTCTCTTCTGCACCACCGTCTTCACTCTGCTCCTGCTTTCCATCGTCATCCTCTACTGCAGGATCTACTCCTTGGTCAGGACTCGAAGCCGCCGCCTGACCTTCCGCAAGAACATCTCCAAGGCCAGTCGCAGTTCTGAGAAGTCTCTGGCCTTGCTGAAGACGGTGATCATTGTCTTGAGTGTCTTCATTGCCTGCTGGGCCCCTCTCTTCATCCTACTACTGTTAGATGTGGGCTGCAAGGCGAAGACCTGTGACATCCTGTACAAAGCAGAGTACTTCCTGGTTCTGGCTGTGCTGAACTCAGGTACCAACCCCATCATCTACACTCTGACCAACAAGGAGATGCGCCGGGCCTTCATCCGGATCGTATCTTGTTGCAAATGCCCCAACGGAGACTCTGCTGGCAAATTCAAGAGGCCCATCATCCCAGGCATGGAATTTAGCCGCAGCAAATCAGACAACTCCTCTCACCCCCAGAAGGACGATGGGGACAACCCAGAGACCATTATGTCGTCTGGAAACGTCAATTCTTCTTCCACTAGTAA |  | + | + coop over BMP2 |
